Target: the molecule itself
Test: cryo-EM structure

B1: E. coli MsbA (natural protein)
chain: MHNDKDLSTWQTFRRLWPTIAPFKAGLIVAGVALILNAASDTFMLSLLKPLLDDGFGKTDRSVLVWMPLVVIGLMILRGITSYVSSYCISWVSGKVVMTMRRRLFGHMMGMPVSFFDKQSTGTLLSRITYDSEQVASSSSGALITVVREGASIIGLFIMMFYYSWQLSIILIVLAPIVSIAIRVVSKRFRNISKNMQNTMGQVTTSAEQMLKGHKEVLIFGGQEVETKRFDKVSNRMRLQGMKMVSASSISDPIIQLIASLALAFVLYAASFPSVMDSLTAGTITVVFSSMIALMRPLKSLTNVNAQFQRGMAACQTLFTILDSEQEKDEGKRVIERATGDVEFRNVTFTYPGRDVPALRNINLKIPAGKTVALVGRSGSGKSTIASLITRFYDIDEGEILMDGHDLREYTLASLRNQVALVSQNVHLFNDTVANNIAYARTEQYSREQIEEAARMAYAMDFINKMDNGLDTVIGENGVLLSGGQRQRIAIARALLRDSPILILDEATSALDTESERAIQAALDELQKNRTSLVIAHRLSTIEKADEIVVVEDGVIVERGTHNDLLEHRGVYAQLHKMQFGQ
binding result: binds
